Results as given in the RNAGym collection of RNA variant scans (doi:10.1073/pnas.2313332121).

B1: TPR t1 (parent)
chain: GACCAAUCUGCCCUCAGAGCUCGAGAACAUCUUCGGAUGCAGAGGAGGCAGGCUUCGGUGGCGCGAUAGCGCCAACGUCCUCAACCUCCAAUGCAUCCCACCACAUGAUGAUGCCUGAAGAGCCUUGGUUUUUUG

Variants of: B1
Assay: polymerase ribozyme fitness, log enrichment relative to wild type (log ratio); higher = more active; in vitro selection for triplet polymerase activity
Outline: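 Genotype fitness is the logarithm of its enrichment divided by wild-type enrichment, using inverse-variance-weighted averages of replicates. That logarithm is base 2. Enrichment was measured by Illumina sequencing of input and output libraries from one triplicate in vitro selection round, with frozen incubation at −7 °C, on PCR-built, transcribed mutant libraries of each subunit of a heterodimeric triplet polymerase ribozyme, retaining genotypes with ≥10 input reads and ≥1 read per output.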

In order of falling “polymerase ribozyme fitness (log ratio)” value:
1. GACCAAUCUGCCCUCAGAGCUCGAGAACAUCUUCGGAUGCAGAGGAGGCAGGCUUCGGUGUCGCGAUAGCGCCAACGUCCUCAACCUCCAAUGCGUCCCACCACAUGAUGAUGCCUGAAGAGCUUUGGUUUUUUG [G61U A95G C124U]  1.97
2. GACCAAUCUGCCCUCAGAGCUCGAGAACAUCUUCGGAUGCAGAGGAGGCAGGCUUCGGUGGUGCGAUAGCGCCAACGUCCUCAACCUCCAAUGCAUCCCACCACAUGAUGAUGCCUGAAGCGCCUUGGUUUUUUG [C62U A121C]  1.11
3. GACCAAUCUGCCCUCAGAGCUCGAGAACAUCUUCGGAUGCAGAGGAGGCAGGCUUCGGUCGCGCGAUAGCGCCAACGUCCUCAACCUCCAAUGCAUCCCACCACAUGAUGAUGCCUGAAGAGCUUUGGUUUUUUG [G60C C124U]  1
4. GACCAAUCUGCCCUCAGAGCUCGAGAACAUCUUCGGAUGCAGAGGAGGCAGGCUUCGGUGGCCCGAUAGCGCCAACGUCCUCAACCUCCAAUGCAUCCCACCACAUGAUGAUGCCUGAAGAGACUUGGUUUUUUG [G63C C123A]  0.07
5. GACCAAUCGGCCCUCAGAGCUCGAGAACAUCUUCGGAUGCAGAGGAGGCAGGCUUCGGUGGCGCGAUAGCGCCAACGUCCUCAACCUCCAAGGCAUCCCACCACAUGAUGAUGCGUGAAGAGCCUUGGUUUCUUG [U9G U92G C115G U132C]  -0.718
6. GACCAAUUUGCCCUCAGAGCUCGAGAACAUCUUCGGUUGCAGAGGAGGCAGGCUUCGGUGGCGCGAUAGCGCCAACGUCCUCAACAUCCAAUGCAUCCCACCACAUGAUGAUGCCUGAAGAGCCUUGGUUUUUUG [C8U A37U C86A]  -0.897
7. GACCAAUCUGUCCUCAGAGCUCGAGAACAUCUUCGGAUGCAGAGGAGGCAGGCUUCGGUGGCGCGAUAGCGCCAACGUCCUCAACCUCCAAUGCAUCCCACCACAUGAUGAUGCAUGAAGAGCCUUGGUUUUUUG [C11U C115A]  -0.908
8. GACCAAUCUGGCCUCAGAGCUCGAGAACAUCUUCGGAUGCAGAAGAGGCAGGCUUCGGUGGCGCGAUAGCGCCAACGUCCUCAACCUCCAAUGCAUCCCACCACAUGAUGAUGCCUGAAGAGCCGUGGUUUUUUG [C11G G44A U125G]  -0.96
9. GACCAAUCUGCCCUCAGAGCUCGAGAACAUCUUCGGAUGCAGAGGAGGCAGUCUUCGGCGGCGCGAUAGCGCCAACGUCCUCAAUCUCCAAUGCAUCCCACCACAUGAUGAUGCCUGAAGAGCUUUGGUUUUUUG [G52U U59C C85U C124U]  -1.1
10. GACCAAUCUGCCCUCAGAGCUCGAGAACAUCUUCGGAUGCAGAGGAGGCAGGUUUCGGUGACGCGAUAGCGCCUACGUCCUCAACCUCCAAUGCAUCCCACCACAUGAUGAUGCCUGAAGAGCCUUCGUUUUUUG [C53U G61A A74U G127C]  -1.43
11. GACUAAUAUGCCCUCAGAGCUCGAGAACAUCUUCGGAUGCAGAGGAGGCAGGUUUCGGUGGCGCGAUAUCGCCAACGUCCUCAACCUCCAAUGCAGCCCACCACAUGAUGAUGCCUGAAGAGCCUUGCUUUUUUG [C4U C8A C53U G69U U96G G128C]  -1.46
12. GACCAAUCUGCGCUCAGAGCUCGAGAACAUCUUCGGAUGCAGAGGCGGCAGGCUUCGGUGGCGCGAUAGCGCCAACGUCCUCAACCUCCAAUGCAUCCCACCACAUGAUGAUGCCUGAAGAGCCUUGGUUUUUUG [C12G A46C]  -1.55
13. GGCCAAUCUGCCCUCAGAGCUCGAGAACAUCUUCGGAUGAAGAGGAGGCAGGCUUCGGUGGCGCGAUAGCGCCAACGUCCUCAACCUCUAAUGCAUCCCACCACAUGAUGAUGCCUGAAGAGCCUUGGUUUUUUG [A2G C40A C89U]  -1.58
14. GACCAAUUUGCACUCAGAGCUCGAGAACAUCUUCGGAUGAAGAGGAGGCAGGCUUCGGUGUCGCGGUAGCGCCAACGUCCUCAACCUCCAAUGCAUCCCACCACAUGAUGAUGCCUGAAGAGCCUUGGUUUUUUG [C8U C12A C40A G61U A66G]  -1.69
15. GACCAAUCUGCCCUCAGAGCUCGAGAACAUCUUCGGAUGCACAGGAGGCAGGCUUCGGUGGCGCGAUAGCGCCAACGUCCUCAUCCUCCAAUGCAUCCCACCACAUGAUGAUGCCUGAAGAGCCUUGGUUUUUUG [G42C A84U]  -1.87
16. GACCAAUCUGUCCUCAGAGCUCGAGAACAUCUUCGGAUGCAGAGGAGGCAGGCUUCGGGGGCGCGAUAGCGCCAACGUCCUCAACCUCCAAUCCAUCCCACCACAUGAUGAUGCCUGAAGAGCCUUGGCUUUUUG [C11U U59G G93C U129C]  -1.93
17. GACCAAUCUUCCCUCAGAGCUCGAGAACAUCUUCGGAUGCAUAGGAGGCAGGCUUCGGUGGCGCGAUAGCGCCAACGUCCUCAACCUCUAAUGCAUCCCACCACAUGAUGAUGCCUGAAGAGCCUUGGUUUUUUG [G10U G42U C89U]  -1.96
18. GACCAAUCUGCCGUCAGAGCUCGAGAACAUCUUCGGAUUCAGAGGAGGCAGGCUUCGGUGGCGCGAUAGCGCCAACGUCCUCAACCUCCAAUGCAUCCCACCACAUGAUGAUGCCUGAAGAGCCUUGGUUUUUUG [C13G G39U]  -2.13
19. GACCAAUCUGCCCUCAGAGUUCGAGAACAUCUUCGGAUGCAGAGGAGGCAGGCUUUGGUGGCGCGAUAGCGCCAACGUCCUCAACCUCCAAUACAUCCCACCACAUGAUGAUGGCUGAAGAGCCUUGGGUUUUUG [C20U C56U G93A C114G U129G]  -2.17
20. GACCAAUCUGCCCUCAGAGCUCGAGAACAUCUUCGGAUUCAGAGGAGGCAGGCUUCGGUGGCGCGAUAGCGCCAACGUCCUCAACCUCCAAUGCAUCCCAACACAUGAUGAUGCCUGAAGAGCCUUGGUUUUUUG [G39U C101A]  -2.22
21. GACCAAUCUGCGCUCAGAGCUCGAGAACAUCUUCGGAUGCAGAGGAGGCAGGCUUCGGUGGUGCGAUAGCGCCAACGUCCUCAACCUCCAAUGCAUCCCACCACCUGAUGAUGCCUGAAGAGCCUUGGUUUUUUG [C12G C62U A105C]  -2.46
22. GACCAAUCUGCCCUCAAAGCUCGAGAACAUCUUCGGAUGCAGAGGAGGCAGGCUUCGGUGGCGCGAUAGUGCCAACGUCCUCAACCUCCAAUGCAUCCCACCACAUGAUGAUGCCUGAAUAGCCUUGGUUUUUUG [G17A C70U G120U]  -2.58
23. GACCAAUCUGCCCUCAGAGCUCGAGAACAUCUUCGGAUGCAGAGGAGGCAGGCUUCGGUGGCGCGAUAGCGCCAACGUCCUCAGCCUCCAAUGCAUCCCACCACAUGAUGAUUCCUGAAGAGCCUUGGUUUUUUG [A84G G113U]  -2.8
24. GACCAAUCUGCCCUCAGAGCUCGAGAACAUCUUCGGAUGCAGAGGAGUCAGUCUUCGGUGGCGCGAUAGCGCCAACGUCCUCAACCUCCGUUGCAUCCCACCACAUGAUGAUGUCUGAAGAGCCUUGGUUUUUUG [G48U G52U A90G A91U C114U]  -2.83
25. GACCAAUCUGCCCUUAGAGCUCGAGAACAUCUUCGGAUGCAGAGGAGGCAGGCUUCGGUGGCGCGAUAGCGCCAACGUCCUCAACCUCCAAUGCAUCCCACCACAUGAUGAUGCCUCAAGAGCCUUGGUUUUUUG [C15U G117C]  -2.96
26. GACCAAUCUACCCUCUGAGCUCGAGAACAUCUUCGGAUGCAGAGGAGGCAGGCUUCGGUGGCGCGAUAGCGCCAACGUCCUCAAGCUCCAAUGCAUCCCACCACAUGAUGAUGCCUGAAGAGCCUUGGUUUUUUG [G10A A16U C85G]  -3.05
27. GACCAAUCUGCCCUCAGAGCUCGGGAACAUCUUCGGAUGCAGAGGAGGCAGGCUUCGGUGGCGUGAUAGCGCCAACGUCCUCAACCUCCAAUGCAGCCCACCACAUGAUGCUGCCUGAAGAGCCUUGGUUUUUUG [A24G C64U U96G A111C]  -3.27
28. GACCAAUCUGCCCUCAGAGCUCGAGAACAUCUUCGGAUGCAGAGGAGGCAGGCUUCGGUGACGCGAUAGCGCCAACGUCCUCAACCUCCAAUGCAUCCCACCACAUGAUCAUGCCUGAAGAGCCUUGGUUUUUUG [G61A G110C]  -3.29
29. GACCAAUCUGCCCUCAGAGCUCGAGAACAUCUUCGGAUGCUGAGGAGGCAGGCUUCGGUGGCGCGAUAGCGCCAACGUCCUCAACCUCCAAUGCAUCCCACCACAUGAUGAUGCCUGAAGAGCCUGGGUUUUUUG [A41U U126G]  -3.66
30. GACCAAUCUGCCCUCAGAGCUCGAGAACAUCUUCGGAUGCAGAGGACGCAGGCUUCGGUGGCGCGAUAGCGCCAACGUCCUCAACCUCCAAUUCAUCCCACCACAUGAUGAUGCCUGAAGAGCCUUGGUUUUUUG [G47C G93U]  -3.69
31. GACCAAUCUGCCCUCAGAGCUCGAGAACAUCUUCGGAUGCAGAGGAGGCAGGCUUUUGUGGCGCGAUAGCGCCAACGUCCUCAACCUCCCAUGCAUCCCACCACAUGAUUAUGCCUGAAGAGCCUUGGUUUUUUG [C56U G57U A90C G110U]  -3.95
32. GACCAAUCUGCCCUCAGAGCUCGAGAACAUCUUCGGAUGCGGAGGAGGCAGGCUUCGGUGGCGCGAUAGCGCCAACGUCCUCAACCUCCAAUGCAUCCCACCACAUGAUGAUGCCUCAAGAGCCUUGGUUUUUUG [A41G G117C]  -4.18
33. GUGCAAUCUGCCCUCAGAGCUCGAGAACAUCUUCGGAUGCAGAGGAGGCAGGCUUCGGUGGCGCGAUAGCGCCAACGUACUCAACCUCCAAUGCAUCCCACCACAUGAUGAUACCUGAAGAGCGUUGGUUUUUUG [A2U C3G C79A G113A C124G]  -4.18
34. GAGCAAUCUGCCCUCAUAGCUCGAGAACAUCUUCGGAUGCAGAGGAGGCUGGCAUCGGUGGCGCGAUAGCGCCGACGUCCUCAACCUCCAAUGCAUCCCACCACAUGAUGAUGCCUGAAGCGCCUUGGUUUUUUU [C3G G17U A50U U54A A74G A121C G135U]  -4.33
35. GACCAAUAUGCCCUCAGAGCUCGAGAAGAUCUUCGGAUGCAGAGGAGGCAGGCUUCGGUGGCGUGAUAGCGCCAACGUCCUCAACCUCCAAUGCAUCCCACAACAUGAAGAUGCCUGAAGAGCCUUGGUUUUUUG [C8A C28G C64U C102A U109A]  -4.53
36. GACCAAUCUGCCCUCAGAGCUCGAGAACAUCUUCGGAUGCAGAGGAGGCAGGCUUCGGUGGCGCGAUAGCGCCAACGUCCUCAACCUCCAAUGCAUCCCACCACAUGAUCAUGCCUGAAGAGCCAUGGUUUUUUG [G110C U125A]  -5.11
37. GACCAAUCUGCCCAAAGAGCUCGAGAACAUCUUCGGAUGCUGAAGAGGCAGGCUUCGGUGGCGCGAUAGCGCCAACGUCCUAAACCUCCAAGGCAUCCCACCACAUGAUGAUGCCUGAAGAGACUUGGUUUUUUG [U14A C15A A41U G44A C82A U92G C123A]  -5.11
38. GACCAAUCUGCCCUCAGAGCUCGAGAACAUCUUCGGAUGCAGAGGAGGCAGGCUUCGGUGGCGUGAUAGCGCCAACGUCCUCAACCUCCAAUACAACCCACCACAUGAUGAUGCCUGAAGAGCCUGGGUUUUUUG [C64U G93A U96A U126G]  -5.25
39. GACCAAUCUGUCCUCAGAGCUCGAGAACAUCUUCGGAUGCAGAGGAGGCAGGCUUCGGUGGCGCGGUAGCGCCAACGUCCUCAACCGCCAAUGCAUCCCACCACAUGAUGAUUCCUGAAGAGCCUUGGUUUUUUG [C11U A66G U87G G113U]  -5.47
40. GACUAAUCUGCACUCAGAGCUCGAGAACAUCUUCGGAUGCAGAAGAGGCAGGCUUCGGUGGCGCGAUAGCGCCAACGUCCUCAACCUCCAAUGCAUCCCACCACAUGAUGAUGCCAGAAGAGCCUUGGUUUUUUG [C4U C12A G44A U116A]  -6.42
41. GACCAAUCUGCCCUCAGUGCUCGAGAAUAUCUUCGUAUGCAGAGGAGGCAGGCUUCGGUGGCGCGAUAGUGCCAACGUGCUCAACCUCCAAUGCAUCCCACCACAUGAUGAUGCCUGAAAAGCAUUGGUUUUUUG [A18U C28U G36U C70U C79G G120A C124A]  -6.76
42. GACCAAUCUGCCCUCAGAGCUCGAGAACAUCUUCGGAUGCAGAGGAGGGAGUCUUGGGUGGCGCGAUAGCGGCAACGUCCUCAACCUCCAAUGCAUCCCACCACAUGAUGAUGCCUGAAGAGCCUUGGUUUUUUG [C49G G52U C56G C72G]  -7.2
